Data as given in patent US8859496B2, “Pharmaceutical composition using connective-tissue growth factor” (Postech Academy-Industry Foundation, priority 2010, dated 2014).
No end group written: not given here.

Molecular target: T1, FPRL1 (Homo sapiens, UniProt P25090)
T1 construct: expressed in transfected cells; host or cells: rat basophil leukemia RBL-2H3 cells, kept under G418
T1 sequence (P25090 1-351): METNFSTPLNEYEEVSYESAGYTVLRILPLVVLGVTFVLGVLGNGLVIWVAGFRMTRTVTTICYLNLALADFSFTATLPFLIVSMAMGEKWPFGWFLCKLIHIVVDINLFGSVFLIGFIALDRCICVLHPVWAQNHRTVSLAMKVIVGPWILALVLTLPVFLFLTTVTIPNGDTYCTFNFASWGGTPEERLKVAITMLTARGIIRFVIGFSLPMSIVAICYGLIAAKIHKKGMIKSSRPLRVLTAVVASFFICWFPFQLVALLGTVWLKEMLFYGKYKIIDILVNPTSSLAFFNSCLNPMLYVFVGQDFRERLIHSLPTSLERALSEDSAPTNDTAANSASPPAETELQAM
Test: Flow cytometry binding of biotinylated linker polypeptide to FPRL1/RBL, vector/RBL or FPR/RBL cells
Description: To evaluate the degree of binding of linker polypeptide corresponding to the link region of human CTGF, linker polypeptide was labeled using a EZ-Link Micro Sulfo-NHS-LC-Biotinylation kit (Pierce Chemical Co., Rockford, Ill., USA) according to the manufacturer's instruction. The linker polypeptide was cultured at room temperature for 1 hour in PBS with 9 mM sulfo-NHS-LC-biotin (Pierce Chemical Co., Rockford, Ill., USA). During biotinylation, vector/RBL cells, FPR/RBL cells, FPRL1/RBL cells, or HUVECs were treated with trypsin, and collected, and then, treated with rabbit serum at room temperature for 30 minutes. After culturing the biotinylated linker polypeptide in the ice for 30 minutes, the cells were shortly washed with ice-cold PBS, cultured with antihuman fluoroscein-5-isothiocyanate (FITC)-conjugated streptavidin (Pierce Chemical Co.), and then, washed with ice-cold PBS, and fixed with 1% formaldehyde solution. And then, they were analyzed using FACS Caliber system (BD Biosciences, San Jose, Calif.) with CellQuest and WinMDI 2.9 software according to previously known method (He, R., Sang, H. & Ye, R. D. Serum amyloid A induces IL-8 secretion through a G protein-coupled receptor, FPRL1/LXA4R. Blood 101, 1572-1581, 2003). […]

Row | binding of biotinylated linker polypeptide to cells (10 nM, FPRL1/RBL, vector/RBL or FPR/RBL cells) | Substance | effect of antagonist on linker polypeptide binding (WRW4 10 uM, 30 minutes)
1 | binds only to FPRL1/RBL cells | EWVCDEPKDQTVVGPALAAYRLEDTFGPDPTMIRANCLV (EWVCDEPKDQTVVGPALAAYRLEDTFGPDPTMIRANCLV-NH2; cysteine pairing not given here) [CTGF linker polypeptide] | 
2 |  | WRWWWW (FPRL1 antagonist) [WRW4] | the linker polypeptide binding is inhibited in FPR/RBL cells
